From article PMC3600295

B1: TBA 15-mer, 5'-NH2 (SWCNT sensor) (structured_DNA)
DNA: GGTTGGTGTGGTTGG
modifications: 5'-NH2, coupled to SWCNT carboxyl groups
B2: TBA 15-mer, 5'-SH (PANI sensor) (structured_DNA)
DNA: GGTTGGTGTGGTTGG
modifications: 5'-SH, coupled to polyaniline

How the values were obtained:
human alpha-thrombin [1] = target: T1, human alpha-thrombin (Homo sapiens, UniProt P00734;P00734 315-363;364-622); assay: potentiometric aptasensor; SWCNT transducer; LOD 80 nM, 8.03 mV/decade (not a Kd); PBS listed as reagent; salt, pH and temperature of the potentiometric assay not given in the material
human alpha-thrombin [2] = target: T1, human alpha-thrombin; assay: potentiometric aptasensor; PANI transducer; LOD 71 nM, 2.97 mV/decade (not a Kd); PBS listed as reagent; salt, pH and temperature of the potentiometric assay not given in the material

Binder | binding result (human alpha-thrombin [1]) | binding result (human alpha-thrombin [2])
B1 | binds | 
B2 |  | binds
